# Reference: US7064106B2, “Gene and use thereof” (Takeda Chemical Industries, Ltd., priority 1999, dated 2006)
# Key:
# IRAP-His = target: T1, IRAP-His (Rattus norvegicus, UniProt P97629); assay: Biochemical binding test of human MD36 (EIA plate, anti-Penta-His detection); conditions: IRAP-His 1.0 μg/ml and anti-Penta-His antibody both added to human MD36-coated wells
# T1 construct: to construct plasmid pET21-IRAP (1–109); made in house
# T1 sequence (P97629 1-109): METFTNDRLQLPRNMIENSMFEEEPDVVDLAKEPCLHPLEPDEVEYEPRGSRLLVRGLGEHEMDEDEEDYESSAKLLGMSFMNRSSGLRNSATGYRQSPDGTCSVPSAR
# From the text: The C terminal part (partial peptide encoded by the partial base sequence of 2995–3674 from the 5′ end in SEQ ID NO:2) of SEQ ID NO:1 (full-length cDNA of MD36) was used as human MD36. This DNA fragment was inserted into pGEX expression vector (Amersham Pharmacia) to construct expression plasmid pGEX-MD36N4 capable of expressing the human MD36 partial protein in the form fused to GST (glutathione S-transferase) protein (GST-MD36N4 protein) under control of tac promoter. However, the protease recognition site in these junctions was removed by applying PCR. Using pGEX-MD36N4, E. coli BL21 was transformed and the transformants were cultured in LB medium in a conventional manner while inducing expression by IPTG. After culture, the cells collected were disrupted by sonication followed by centrifugation of the cell homogenate. As a result, most of the GST-MD36N4 protein were present in the insoluble fraction. […]
# Protein-protein binding test was carried out by the procedure shown below. […] After the wells were again rinsed 3 times with TBS-T, the IRAP-His protein remained in the wells was quantitatively assayed using anti-Penta-His antibody (Qiagen, Inc.). […] IRAP-His (1.0 μg/ml) or anti-Penta-His antibody (diluted to 2000 fold) and both were added to the GST-MD364N-coated or uncoated wells, and after washing with TBS-T, the amount of His-Tag remained in the wells was quantified. […]
# profilin I = assay: Yeast two-hybrid HIS3 growth test, MD36 and profilin family; type: cell-based; conditions: S. cerevisiae Y190; 40 mM 3-amino-1,2,4-triazole
# From the text: The protein-protein interaction between MD36 and the profilin family was detected by the yeast two-hybrid system. Based on pGBT9 (CLONTECH), expression plasmids were constructed to express the coding regions of profiling I (Evangelista et al., Science, 276, 118–122, 1997; Imamura et al., EMBO J., 16, 2745–2755, 1997; Tanaka, Biochem. Biophys. Res. Commun., 267, 479–481, 2000), profilin II (Schluter et al., Biohim. Biophys. Acta, 1359, 97–109, 1997), and profiling IIL in the form fused to yeast GAL4-DNA-binding domain protein under control of yeast ADH1 promoter. These plasmids were named pG-PFNI, pG-PFNII and pG-PFNIII, respectively (yeast selection marker was TRP1). On the other hand, expression plasmids that express the full-length sequence (SEQ ID NO:1) of MD36, which is IRAP-BP protein, or the coding region from this N-terminus to the sequence (SEQ ID NO:33) including the proline-rich domain in the form fused to yeast […] activated domain protein under control of yeast ADH1 promoter was constructed based on pACT2 (CLONTECH), and named pACT-MD36 and pACT-MD36NT, respectively (yeast selection marker was LEU2). pG-PFNI, pG-PFNII, pG-PFNIII or, pGBT9 for control was co-transfected to yeast Saccharomyces cerevisiae Y190 together with pACT-MD36 or pACT-MD36NT, and yeast strains bearing plasmids from the two were selected on SD medium free of tryptophan and leucine. S. cerevisiae Y190 is originally a histidine auxotrophic strain but when the introduced proteins on the plasmids show the interactions, reporter gene HIS3 is expressed and the strain becomes capable of growing on a histidine-free plate. The yeast strain acquired was spread on tryptophan, leucine and histidine-free SD medium supplemented with 40 mM 3-amino-1,2,4-triazole.
# profilin IIL = target: T2, profilin IIL (Homo sapiens, UniProt P35080); assay: as above; type: cell-based; conditions: S. cerevisiae Y190; 40 mM 3-amino-1,2,4-triazole
# T2 construct: expressed in transfected cells; host or cells: Saccharomyces cerevisiae Y190
# T2 sequence (P35080 1-140): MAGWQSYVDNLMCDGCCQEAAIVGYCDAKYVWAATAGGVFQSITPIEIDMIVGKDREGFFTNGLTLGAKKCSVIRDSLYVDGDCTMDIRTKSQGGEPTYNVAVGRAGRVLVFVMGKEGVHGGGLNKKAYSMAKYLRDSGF
# Experimental: Using as a template human skeletal muscle-derived cDNA and as an enzyme Pfu polymerase (STRATAGENE), the reaction was carried out at 95° C. for 30 seconds, at 65° C. for 45 seconds and at 72° C. for 60 seconds, for 35 cycles. As a result of PCR, the DNA fragment of 745 bp was found, in addition to the DNA fragment of 423 bp or profilin II, and named profilin IIL. The base sequence for cDNA of profilin IIL is shown by SEQ ID NO:29, and the amino acid sequence of profilin II is shown by SEQ ID NO:28.
# The protein-protein interaction between MD36 and the profilin family was detected by the yeast two-hybrid system. Based on pGBT9 (CLONTECH), expression plasmids were constructed to express the coding regions of profiling I (Evangelista et al., Science, 276, 118–122, 1997; Imamura et al., EMBO J., 16, 2745–2755, 1997; Tanaka, Biochem. Biophys. Res. Commun., 267, 479–481, 2000), profilin II (Schluter et al., Biohim. Biophys. Acta, 1359, 97–109, 1997), and profiling IIL in the form fused to yeast GAL4-DNA-binding domain protein under control of yeast ADH1 promoter. These plasmids were named pG-PFNI, pG-PFNII and pG-PFNIII, respectively (yeast selection marker was TRP1). […]
molecule,measurement,setting,value
"MD36: human skeletal muscle-derived IRAP binding protein, SEQ ID NO:1; C-terminal part (bases 2995–3674) used in binding tests (protein, listed as Homo sapiens) MAGGEDRGDGEPVSVVTVRVQYLEDTDPFACANFPEPRRAPTCSLDGALPLGAQIPAVHRLLGAPLKLEDCALQVSPSGYYLDTELSLEEQREMLEGFYEEISKGRKPTLILRTQLSVRVNAILEKLYSSSGPELRRSLFSLKQIFQEDKDLVPEFVHSEGLSCLIRVGAAADHNYQSYILRALGQLMLFVDGMLGVVAHSDTIQWLYTLCASLSRLVVKTALKLLLVFVEYSENNAPLFIRAVNSVASTTGAPPWANLVSILEEKNGADPELLVYTVTLINKTLAALPDQDSFYDVTDALEQQGMEALVQRHLGTAGTDVDLRTQLVLYENALKLEDGDIEEAPGAGGRRERRKPSSEEGKRSRRSLEGGGCPARAPEPGPTGPASPVGPTSSTGPALLTGPASSPVGPPSGLQASVNLFPTISVAPSADTSSERSIYKLHQTASVWAPESPPVPQSPPGQARLEARFLENVAAAETEKQVALAQGRAETLAGAMPNEAGGHPDARQLWDSPETAPAARTPQSPAPCVLLRAQRSLAPEPKEPLIPASPKAEPIWELPTRAPRLSIGDLDFSDLGEDEDQDMLNVESVEAGKDIPAPSPPLPLLSGVPPPPPLPPPPPIKGPFPPPPPLPLAAPLPHSVPDSSALPTKRKTVKLFWRELKLAGGHGVSASRFGPCATLWASLDPVSVDTARLEHLFESRAKEVLPSKKAGEGRRTMTTVLDPKRSNAINIGLTTLPPVHVIKAALLNFDEFAVSKDGIEKLLTMMPTEEERQKIEEAQLANPDIPLGPAENFLMTLASIGGLAARLQLWAFKLDYDSMEREIAEPLFDLKVGMEQLVQNATFRCILATLLAVGNFLNGSQSSGFELSYLEKVSEVKDTVRRQSLLHHLCSLVLQTRPESSDLYSEIPALTRCAKVDFEQLTENLGQLERRSRAAEESLRSLAKHELAPALRARLTHFLDQCARRVAMLRIVHRRVCNRFHAFLLYLGYTPQAAREVRIMQFCHTLREFALEYRTCRERVLQQQQKQATYRERNKTRGRMITETEKFSGVAGEAPSNPSVPVAVSSGPGRGDADSHASMKSLLTSRPEDTTHNRRSRGMVQSSSPIMPTVGPSTASPEEPPGSSLPSDTSDEIMDLLVQSVTKSSPRALAARERKRSRGNRKSLRRTLKSGLGDDLVQALGLSKGPGLEV",amount of His-Tag remained in the wells,IRAP-His,markedly detected
same,"growth of yeast on tryptophan, leucine and histidine-free SD medium",profilin I,did not grow
same,"growth of yeast on tryptophan, leucine and histidine-free SD medium",profilin IIL,Growth of the yeast was noted
